# From patent US20250387450A1
# Biological target: TRPV1 disordered region polypeptide (UniProt Q8NER1)
# Assay: modified sandwich ELISA, fluorescence grade by the table's key
row,fluorescent signal (fluorescentsignal),Binder
1,100000 to 250000,engineered scaffold protein S090 (designed binder) IKEEHSIRQNEMYLNPDQSGLFEFHLDGQPIFRVDMQKKRTKWQLEEFGRFASFEAQGALANIAVDKANLEIMTKRSNQSEAGSHSWQLIFVCEFHEGTESVRLSERCYYNQELSVSFNSDVGEYRAVTELGRPDAEYWNSQKDLLEQRRAAVDTYCRHNYGVGESFTVQRRGGSHHHHHHLE
2,50000 to 100000,engineered scaffold protein S068 (designed binder) GDTRPRFLWQLKFECHFFNGTERVRLLERCIYNQEESVRFDSDVGEYRAVTELGRPDAEYWNSQKDLLEQRRAAVDTYCRHNYGVGESFTVQRRVEPKVTVYPSKTQPLQHHNLLVCSVSGFYPGSIEVRWFRNGQEEKAGVVSTGLIQNGDWTFQTLVMLETVPRSGEVYTCQVEHPSVTSPLTVEWRASGGGGSGGGGSGGGGIKEEHVIIQAEFYLNPDQSGEFMFDFDGDEIFHVDMAKKETVWRLEEFGRFASFEAQGALANIAVDKANLEIMTKRSNYTPITNVPPEVTVLTNSPVELREPNVLICFIDKFTPPVVNVTWLRNGKPVTTGVSETVFLPREDHLFRKFHYLPFLPSTEDVYDCRVEHWGLDEPLLKHWEFDAPSGGSHHHHHHLE
3,100000 to 250000,engineered scaffold protein S005 (designed binder) MIKEEHVIIQAEFYLNPDQSGEFMFDFDGDEIFHVDMAKKETVWRLEEFGRFASFEAQGALANIAVDKANLEIMTKRSNYTPMGDTRPRFLWQLKFECHFFNGTERVRLLERCIYNQEESVRFDSDVGEYRAVTELGRPDAEYWNSQKDLLEQRRAAVDTYCRHNYGVGESFTVQGGSHHHHHHLE
